Test results: publication PMC12096693 (Microbial Cell Factories, 2025)

Legend:
CL2 = conditions: pH 7, 2 mM PLP
purified protein = substrate: NCCCC[C@H](N)C(=O)O; test: purified protein; conditions: pH 7, 2 mM PLP

Row | Km (CL2) | Molecule | Km (purified protein)
1 | 22.2 ± 5.73 mM | NCCCC[C@H](N)C(=O)O [L-lysine] | 
2 |  | CadA (Escherichia coli K-12) (protein) MNVIAILNHMGVYFKEEPIRELHRALERLNFQIVYPNDRDDLLKLIENNARLCGVIFDWDKYNLELCEEISKMNENLPLYAFANTYSTLDVSLNDLRLQISFFEYALGAAEDIANKIKQTTDEYINTILPPLTKALFKYVREGKYTFCTPGHMGGTAFQKSPVGSLFYDFFGPNTMKSDISISVSELGSLLDHSGPHKEAEQYIARVFNADRSYMVTNGTSTANKIVGMYSAPAGSTILIDRNCHKSLTHLMMMSDVTPIYFRPTRNAYGILGGIPQSEFQHATIAKRVKETPNATWPVHAVITNSTYDGLLYNTDFIKKTLDVKSIHFDSAWVPYTNFSPIYEGKCGMSGGRVEGKVIYETQSTHKLLAAFSQASMIHVKGDVNEETFNEAYMMHTTTSPHYGIVASTETAAAMMKGNAGKRLINGSIERAIKFRKEIKRLRTESDGWFFDVWQPDHIDTTECWPLRSDSTWHGFKNIDNEHMYLDPIKVTLLTPGMEKDGTMSDFGIPASIVAKYLDEHGIVVEKTGPYNLLFLFSIGIDKTKALSLLRALTDFKRAFDLNLRVKNMLPSLYREDPEFYENMRIQELAQNIHKLIVHHNLPDLMYRAFEVLPTMVMTPYAAFQKELHGMTEEVYLDEMVGRINANMILPYPPGVPLVMPGEMITEESRPVLEFLQMLCEIGAHYPGFETDIHGAYRQADGRYTVKVLKEESKK | 29.23 ± 9.56 mM
3 |  | LdcC (Escherichia coli K-12) (protein) MNIIAIMGPHGVFYKDEPIKELESALVAQGFQIIWPQNSVDLLKFIEHNPRICGVIFDWDEYSLDLCSDINQLNEYLPLYAFINTHSTMDVSVQDMRMALWFFEYALGQAEDIAIRMRQYTDEYLDNITPPFTKALFTYVKERKYTFCTPGHMGGTAYQKSPVGCLFYDFFGGNTLKADVSISVTELGSLLDHTGPHLEAEEYIARTFGAEQSYIVTNGTSTSNKIVGMYAAPSGSTLLIDRNCHKSLAHLLMMNDVVPVWLKPTRNALGILGGIPRREFTRDSIEEKVAATTQAQWPVHAVITNSTYDGLLYNTDWIKQTLDVPSIHFDSAWVPYTHFHPIYQGKSGMSGERVAGKVIFETQSTHKMLAALSQASLIHIKGEYDEEAFNEAFMMHTTTSPSYPIVASVETAAAMLRGNPGKRLINRSVERALHFRKEVQRLREESDGWFFDIWQPPQVDEAECWPVAPGEQWHGFNDADADHMFLDPVKVTILTPGMDEQGNMSEEGIPAALVAKFLDERGIVVEKTGPYNLLFLFSIGIDKTKAMGLLRGLTEFKRSYDLNLRIKNMLPDLYAEDPDFYRNMRIQDLAQGIHKLIRKHDLPGLMLRAFDTLPEMIMTPHQAWQRQIKGEVETIALEQLVGRVSANMILPYPPGVPLLMPGEMLTKESRTVLDFLLMLCSVGQHYPGFETDIHGAKQDEDGVYRVRVLKMAG | 18.46 ± 0.89 mM
